In article PMC7570257 (Biochemistry, 2015):

Legend:
AUC = molecular target: the molecule itself; experiment: AUC
native gel or EMSA = molecular target: the molecule itself; experiment: native gel or EMSA

Protein	stoichiometry N (AUC)	stoichiometry N (native gel or EMSA)
chimera tPRMT8C (β15 of tPRMT8 replaced with that of Hmt1) (domain or fragment, human | yeast) MSKLLNPEEMTSRDYYFDSYAHFGIHEEMLKDEVRTLTYRNSMYHNKHVFKDKVVLDVGSGTGILSMFAAKAGAKKVFGIECSSISDYSEKIIKANHLDNIITIFKGKVEEVELPVEKVDIIISEWMGYCLFYESMLNTVIFARDKWLKPGGLMFPDRAALYVVAIEDRQYKDFKIHWWENVYGFDMTCIRDVAMKEPLVDIVDPKQVVTNACLIKEVDIYTVKTEELSFTSAFCLQIQRNDYVHALVTYFNIEFTKCHKKMGFSTAPDAPYTHWKQTVFYLEDYLTVRRGEEIYGTISMKPNAKNVRDLDFTVDLDFKIDGNSRSRKNEGSYLMH	4	
EGFP-tagged tPRMT8 (domain or fragment, human, UniProt Q9NR22 61-394, looked up) MSKLLNPEEMTSRDYYFDSYAHFGIHEEMLKDEVRTLTYRNSMYHNKHVFKDKVVLDVGSGTGILSMFAAKAGAKKVFGIECSSISDYSEKIIKANHLDNIITIFKGKVEEVELPVEKVDIIISEWMGYCLFYESMLNTVIFARDKWLKPGGLMFPDRAALYVVAIEDRQYKDFKIHWWENVYGFDMTCIRDVAMKEPLVDIVDPKQVVTNACLIKEVDIYTVKTEELSFTSAFCLQIQRNDYVHALVTYFNIEFTKCHKKMGFSTAPDAPYTHWKQTVFYLEDYLTVRRGEEIYGTISMKPNAKNVRDLDFTVDLDFKGQLCETSVSNDYKMR		4
